In the supplement of paper PMC10567573 one finds protein stability index data, which are given here for 72 sequences.

This data set is described as follows: protein stability index of a GFP-peptide fusion (GPS, HEK-293T) (PSI 1-6); higher = more stable.
Where [1] appears, read: treatment: DMSO, c terminus: a fixed tail appended.
Setting [2] is: treatment: MLN4924 1 uM, 8 h, c terminus: a fixed tail appended.
[3] abbreviates: treatment: DMSO, c terminus: native.
Where [4] appears, read: treatment: MLN4924 1 uM, 8 h, c terminus: native.

± gives the standard deviation.
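Further: 24-mer peptide tiles fused after GFP, lentivirally expressed, FACS-sorted into six equal bins by GFP/DsRed ratio, decoded by Illumina sequencing, PSI is the read-weighted mean bin number.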

For the sequence GISVPSGLFVPSLLCGAAFGRLVA [CLCN6], the protein stability index turned out to be 2.62 ± 1.2 under setting [1] and 2.51 ± 0.97 under setting [2]. Consider GKKQVPCFASMLTKKLHFFPKSN [CASP6], for which the protein stability index came out at 2.82 ± 0.27 under setting [3] and 3.51 ± 0.69 under setting [4]. GKKVAVVLMDTQGAFDSQSTVKDC [ATL3]: the protein stability index reads like this: under setting [1], 3.46 ± 0.87; under setting [2], 3.66 ± 0.44.

Under setting [2], GKLKAPPKPCAGNQGTQITVEDLF [MLH1] displayed a protein stability index of 3.65 ± 0.42.

On to GLASWPLARGIHVAGILSLLLGTA [POMT2], for which the protein stability index runs as follows: under setting [1], 2.52 ± 0.52; under setting [2], 2.18 ± 0.49. For GNEKITMQNLNDRLASYLDKVRAL [KRT15], in that order: 2.6 ± 0.73 and 2.78 ± 0.5. For GNLSVLDVGCISVTVPSMLSRLLS [OR3A1], in that order: 2.09 ± 0.49 and 2.29 ± 0.18. The like results for GPLFNFDVHDDVRLLSDATVEKDE [FAM50A] were, in that order, 5.23 ± 0.17 and 5.43 ± 0.11.

Regarding GQCVQAFETHESDINSVRYYPSGD [GNB5], the protein stability index under setting [1] was determined as 4.52 ± 0.12 and the protein stability index under setting [2] was determined as 4.46 ± 0.093. In the case of GQKLVVPGLLGSMALSNHYRSEDL [FBXO3], the protein stability index is, setting by setting: under setting [1], 2.92 ± 0.21; under setting [2], 3.17 ± 0.35. Take GQRFYSRVLSPLHRGPSGHTEASA: the protein stability index was 3.74 ± 0.045 under setting [1] and 3.79 ± 0.29 under setting [2]. With GQTYVDAGYEVDKIAQNLDFVNLM [CHIT1], the protein stability index by setting is: under setting [1], 3.01 ± 0.27; under setting [2], 3.23 ± 0.45. The like results for GRSREELDELTGEVAGGGTPLLIA [FEM1A] were, in that order, 4.6 ± 0.26 and 4.77 ± 0.26. For GSAAGHVLVKDNGLGCKDLDLIFH [TENT5C], in that order: 2.59 ± 0.32 and 2.84 ± 0.44. For GSEKVTMQNLNDRLASYLDKVRAL [KRT16], in that order: 2.88 ± 0.2 and 2.89 ± 0.25. For GSESYKSSAGSAEQTAPGDSTGYM [EHMT1], the protein stability index by setting is: under setting [1], 5.16 ± 0.25; under setting [2], 5.21 ± 0.3.

For the sequence GTAITSQYLAERYKVNTPMLQSFI [SLC35F2], the protein stability index stood at 2.58 ± 0.57 under setting [1] and 2.26 ± 0.38 under setting [2]. The like results for GTGLVLDEQLNEFHCLWDDSFPEG [HDAC6] were, in that order, 4.12 ± 0.34 and 3.96 ± 0.16.

For GTWVTFGGQITDEMAEQLMTLAYD [KCNAB2], the protein stability index came to 2.17 ± 0.37 under setting [1] and 2.28 ± 0.29 under setting [2]. The like results for GYIDPEELAEIFRASGEHVTDEEI [TNNC2] were, in that order, 5.01 ± 0.87 and 4.99 ± 0.17.

As to GYLIKILTNSNLPEEELDFFEILR [CNOT7], the protein stability index by setting is: under setting [1], 2.15 ± 0.25; under setting [2], 2.23 ± 0.3.

Regarding GYNPDYDESGGPDNEDYPLFRELW [KLHDC10], the protein stability index was determined as 3.37 ± 0.36 under setting [1] and 3.47 ± 0.18 under setting [2]. For HAIYSLSYPMRRSYRYKLLNWAYQ [STEAP1], in that order: 2.33 ± 0.71 and 2.63 ± 0.61. Turning to HFSLRVQSRANGVKYPELVLEHSL [PCDHGA10], the protein stability index turned out to be 2.35 ± 0.29 under setting [1] and 2.27 ± 0.35 under setting [2]. For HFTAMVWKNTKKMGVGKASASDGS [GLIPR2], in that order: 3.2 ± 0.14 and 3.36 ± 0.36. The like results for HGCEYSCVNMDRSFACQCPEGHVL [MATN2] were, in that order, 3.57 ± 0.29 and 3.61 ± 0.26. The like results for HLKSSRNSTSVKKKSSRNIFSIVF [P2RY14] were, in that order, 2.39 ± 0.48 and 2.13 ± 0.55. On to HMFVWGGYKSNQVRGLYDFYLPRE [KLHDC2], for which the protein stability index by setting is: under setting [1], 2.24 ± 0.26; under setting [2], 2.19 ± 0.5. Regarding HPSENIIAVAATNNLYIFQDKVN [PPP2R2B], the protein stability index worked out at 2.44 ± 0.22 under setting [3] and 2.64 ± 0.21 under setting [4].

Take HQEAEMAQNAVRLHYGLPVVVKLL [CTNNB1]: the protein stability index runs as follows: under setting [1], 2.58 ± 0.18; under setting [2], 2.62 ± 0.21. The like results for HQGHSDQHHHHHHHHHGRDFLLRA [RHOBTB2] were, in that order, 3.45 ± 0.11 and 3.65 ± 0.24.

Take HRMVVKIGDFGISKILSSKSKAYT [NEK8]: the protein stability index runs as follows: under setting [1], 2.33 ± 0.084; under setting [2], 2.14 ± 0.12. The like results for HRRRTICGTPNYLSPEVLNKQGHG [PLK2] were, in that order, 3.99 ± 0.19 and 4.17 ± 0.17. Sequence HSSPVDLKIPQVRGMDLSWESRTG [LCOR] yielded a protein stability index under setting [1] of 3.43 ± 0.33 and a protein stability index under setting [2] of 3.65 ± 0.31. For the sequence HSVLQIRYSGKILKNNETLVQHGV [IQUB], the protein stability index is, setting by setting: under setting [1], 2.09 ± 0.035; under setting [2], 2.31 ± 0.28. For HTDIKPENILMCVDDAYVRRMAAE [SRPK2], in that order: 4 ± 0.22 and 4.07 ± 0.27.

With HTQVLPDVRLLPRRLPLAFRDATS [DYRK1B], the protein stability index by setting is: under setting [1], 2.84 ± 0.32; under setting [2], 3.04 ± 0.22.

Regarding HVIHIIDFGLAKEYIDPETKKHIP [CSNK1G1], the protein stability index under setting [1] stood at 1.99 ± 0.29 and the protein stability index under setting [2] is 2.16 ± 0.087. The like results for HVKKLQQKVATLEKRNRQLRERVK [CCDC3] were, in that order, 3.72 ± 0.26 and 4 ± 0.61. The like results for IADRAAHDESPGNNVVDISVPPTT [RAB11B] were, in that order, 5.43 ± 0.24 and 5.21 ± 0.13. Consider IAKNLVEKGILTTEKQNFLLFDMT [GOLPH3L], for which the protein stability index by setting is: under setting [1], 2.06 ± 0.18; under setting [2], 2.15 ± 0.22. Turning to ICCWSFYGQGRKIAEVCCTSIVYA [KCTD10], the protein stability index by setting is: under setting [1], 2.98 ± 0.44; under setting [2], 3.44 ± 0.54. For IEKEVFPIMAKEGQLYAMELQGFW [GMPPB], in that order: 2.77 ± 0.44 and 2.27 ± 0.37. For IELDRTIMPDGTIVTTVTTVQSRP [C2CD2L], in that order: 2.1 ± 0.14 and 2.09 ± 0.23. The like results for IEQDAVVPSEWLSSVYKQQWFAML [GMCL1] were, in that order, 2.26 ± 0.098 and 2.78 ± 0.3. With IFDEDHDEMVIVKDIDMFSMCEHH [GCH1], the protein stability index is, setting by setting: under setting [1], 3.16 ± 0.24; under setting [2], 3.31 ± 0.13. On to IFGSNKWTTEQQQRFHEICSNLVK [ARL6IP1], for which the protein stability index is 2.98 ± 0.13 under setting [1] and 3.03 ± 0.14 under setting [2].

For IGMPFNQLGTLAGSKYYNVEAMYC [SMG5], the protein stability index came out at 2.36 ± 0.51 under setting [1] and 2.27 ± 0.3 under setting [2]. The like results for IGSSVMAASLVTMGIVNLNIHMNF [SLC2A12] were, in that order, 3.05 ± 0.24 and 3.13 ± 0.17. For IHGFPWWPARVLDISLGQKEDGEP [PWWP2B], in that order: 3.05 ± 0.18 and 3.54 ± 0.4.

Take IHLREDLVQDQDLEAIRKQDLVEL [ZER1]: the protein stability index was determined as 4.5 ± 0.096 under setting [1] and 4.56 ± 0.28 under setting [2]. The like results for IHPDEDISLEERRAQLPKYQRNLP [ZNF207] were, in that order, 4.19 ± 0.27 and 4.46 ± 0.31. The like results for IIELLGSIPRHFALSGKYSREFFN [SRPK2] were, in that order, 2.75 ± 0.54 and 2.56 ± 0.39. Regarding IIVRTTNKKYYKKFSIPDLDRHQL [DPCD], the protein stability index worked out at 2.29 ± 0.55 under setting [1] and 2.14 ± 0.29 under setting [2]. The like results for IKDKEAPLHVAQTRLYLRSHRPNM [TEKT4] were, in that order, 3.23 ± 0.25 and 3.23 ± 0.25. In the case of IKGLQRKERLKPAHIHLQQLTCFS [KRT34], the protein stability index runs as follows: under setting [1], 2.3 ± 0.39; under setting [2], 2.36 ± 0.37. For IKPPPPLVLNSQQSDTLEQREEHE [RAD54B], in that order: 5.23 ± 0.13 and 5.3 ± 0.34.

Regarding ILGSGEEGPQVGPSAAQTLRSFCA [ADAMTS4], the protein stability index reads like this: under setting [1], 3.7 ± 0.5; under setting [2], 3.95 ± 0.53. For ILLSKEPDGVWAYNRGEHPIFVNS [SMAD6], the protein stability index is, setting by setting: under setting [1], 2.2 ± 0.19; under setting [2], 2.44 ± 0.2. INHLLKSPFSVHPKTGRISVPIDL [PRIM1]: the protein stability index by setting is: under setting [1], 2.06 ± 0.21; under setting [2], 2.48 ± 0.17. Take IQSRVQELHPESGEEAVTLVEDMQ [ZNF263]: the protein stability index runs as follows: under setting [1], 5.42 ± 0.18; under setting [2], 5.44 ± 0.11. For IREEGRCSSSDDDTDVDMEGLRRR [PBXIP1], in that order: 5.37 ± 0.25 and 5.42 ± 0.36. The like results for IRLTQYIDGQGRPRTSQSEETRVW [CAMK2B] were, in that order, 3.13 ± 0.3 and 3.16 ± 0.14.

In the case of ISEAFSQRVGFGDDFDEDELMAEL [CHMP4C], the protein stability index under setting [1] is 4.86 ± 0.32 and the protein stability index under setting [2] worked out at 5.07 ± 0.2. For ISEEGHHYLIFDLVTGGELFEDIV [CAMK2A], in that order: 2.47 ± 0.62 and 2.13 ± 0.29. For ISENLDYEETGFYEIEIQAEDGGA [PCDHGA10], in that order: 4.74 ± 0.18 and 4.7 ± 0.2. The sequence ISLINTRMLFWACSTNKPEGYRVS [FAF2] returned a protein stability index under setting [1] of 2.5 ± 0.61 and a protein stability index under setting [2] of 2.35 ± 0.39. ISLWPREPPPKSGPSLVPGKTPTV [CD207]: the protein stability index under setting [1] was determined as 3.06 ± 0.18 and the protein stability index under setting [2] stood at 3.43 ± 0.084. The like results for ITSETTSTTTTTHITKTVKGGISE [EPB41L3] were, in that order, 5.06 ± 0.22 and 4.69 ± 0.79.

For IVIADVKLVADFQRYILYWRKRFT [ZNF277], the protein stability index under setting [1] is 2.48 ± 0.57 and the protein stability index under setting [2] was 2.48 ± 0.46. Regarding IVTKFYQLSATGQKLYVRLFQRKL [FAN1], the protein stability index by setting is: under setting [1], 3.6 ± 0.98; under setting [2], 2.57 ± 0.51. Consider IVWSLAFGSSVPEKQSRCVNIEWH [WSB1], for which the protein stability index is 2.92 ± 0.36 under setting [1] and 2.93 ± 0.21 under setting [2].
